Test results taken from patent US7476386B1 (priority 1997, dated 2009).
Ends that are not written are not given here. * marks the point of attachment. Palmitoyl = CCCCCCCCCCCCCCCC(=O)*

Tests used:
Format in all cases: physicochemical
[1] = Sterilizing filtration (0.22 μm) of lipopeptide mixtures; settings: for yield (%): batch CK9, 20 mg/ml in 80% acetic acid, filtered 0.22 μm, range reflects precision of determination
Procedure: The solutions obtained were subjected to ultrasonic action to encourage the dispersion of the aggregates, mixed to give a final volume of 5.5 ml, and the mixture was again subjected to ultrasonic action, then diluted with 9.5 ml of water to obtain a final concentration of about 8% in acetic acid (AcOH), compatible with a good quality freeze-drying. This solution, after a final period in the ultrasonic bath, was filtered over Millipore Millex GV SLGV 0130S filters (0.22 μm).
An ultrasonic step was used at each stage to ensure effective dispersion of the aggregates.
The solutions were mixed, then filtered over Millex GV SLGV 0130S filters (0.22 μm). […] The receiver vessels and the filter were then rinsed with water, in sufficient quantity to give a final acetic acid concentration of 8% (final volume 15 ml as before), so as to ensure the quality of the freeze-drying step.
The procedure used was the same as for the previous batch, apart from the quantities. The solution of the peptide (20 mg/ml in 80% acetic acid) was filtered in 4 portions, changing the filter before its saturation, using identical membranes (Durapore STERIVEX GV 0.22 μm sterile units (Millipore)), then made up with the water used for rinsing the filters and for dilution. The final volume was 1516 ml (including 154 ml of acetic acid: 10% in final solution). The portion volume was 1.3 ml per dose. The apportioned doses were freeze-dried, and analysed using a validated HPLC determination method.
This set of peptides was synthesized as described in the previous examples.
This set of peptides was synthesized as described in example 1. The mixture of solutions was performed on a sample of 5 mg of each peptide previously dissolved at a concentration of 20 mg/ml in 80% acetic acid then mixed in the following order: 1: LSA3 NRI; 2: LSA3 NRII; 3: LSA3 CT1; 4 LSA3 RE.

[2] = Test of uniformity of concentration on batch CK9; settings: batch CK9, 15 random samples, each injected three times
Procedure: According to the Pharmacopoeia, powders for parenteral use are subjected to a requirement of uniformity of concentration. The test must be performed on 10 random samples, which are analysed individually for the active ingredient using an appropriate analytical method. The preparation satisfies the test if the concentration of each sample is between 85 and 115% of the average concentration.
The test was performed on 15 random samples, taken up in solution and diluted in 80% acetic acid according to a standardized operational procedure, so as always to inject an identical proportion of about 15 μg, defined during preparation of the calibration curve. Each sample was injected three times, the concentration of each active ingredient corresponding to the average of the three values obtained.

[3] = Solubility of the lipopeptides in pure water
[4] = batch CK2, simple mixture diluted to about 8% acetic acid, 0.22 μm filter
[5] = batch CK3, each lipopeptide in 80% acetic acid, mixed then filtered 0.22 μm

Substance | Filtration yield (%) after mixing [1, 4] | Filtration yield (%) after mixing [1, 5] | yield (%) [1] | Observed deviation [2] | appearance of the solution in pure water [3]
EWRFDSRLAFHHVARELHPEYFKNK(Pam)-NH2 (EWRFDSRLAFHHVARELHPEYFKNK(Palmitoyl)-NH2; N-terminus assumed; SMILES CCCCCCCCCCCCCCCC(=O)NCCCC[C@H](NC(=O)[C@H](CC(N)=O)NC(=O)[C@H](CCCCN)NC(=O)[C@H](Cc1ccccc1)NC(=O)[C@H](Cc1ccc(O)cc1)NC(=O)[C@H](CCC(=O)O)NC(=O)[C@@H]1CCCN1C(=O)[C@H](Cc1c[nH]cn1)NC(=O)[C@H](CC(C)C)NC(=O)[C@H](CCC(=O)O)NC(=O)[C@H](CCCNC(=N)N)NC(=O)[C@H](C)NC(=O)[C@@H](NC(=O)[C@H](Cc1c[nH]cn1)NC(=O)[C@H](Cc1c[nH]cn1)NC(=O)[C@H](Cc1ccccc1)NC(=O)[C@H](C)NC(=O)[C@H](CC(C)C)NC(=O)[C@H](CCCNC(=N)N)NC(=O)[C@H](CO)NC(=O)[C@H](CC(=O)O)NC(=O)[C@H](Cc1ccccc1)NC(=O)[C@H](CCCNC(=N)N)NC(=O)[C@H](Cc1c[nH]c2ccccc12)NC(=O)[C@@H](N)CCC(=O)O)C(C)C)C(N)=O) [NEF 182] | 92% | quantitative | 96.23-102.05% | 5.84% | –
VGFPVTPQVPLRPMTYKAAVDLSHFLKEKGGLK(Pam)-NH2 [NEF 66] | 95% | quantitative | 89.14-94.6% | 4.23% | –
TQGYFPDWQNYTPGPGVRYPLTFGWCYKLVPK(Pam)-NH2 (TQGYFPDWQNYTPGPGVRYPLTFGWCYKLVPK(Palmitoyl)-NH2; N-terminus assumed; SMILES CCCCCCCCCCCCCCCC(=O)NCCCC[C@H](NC(=O)[C@@H]1CCCN1C(=O)[C@@H](NC(=O)[C@H](CC(C)C)NC(=O)[C@H](CCCCN)NC(=O)[C@H](Cc1ccc(O)cc1)NC(=O)[C@H](CS)NC(=O)[C@H](Cc1c[nH]c2ccccc12)NC(=O)CNC(=O)[C@H](Cc1ccccc1)NC(=O)[C@@H](NC(=O)[C@H](CC(C)C)NC(=O)[C@@H]1CCCN1C(=O)[C@H](Cc1ccc(O)cc1)NC(=O)[C@H](CCCNC(=N)N)NC(=O)[C@@H](NC(=O)CNC(=O)[C@@H]1CCCN1C(=O)CNC(=O)[C@@H]1CCCN1C(=O)[C@@H](NC(=O)[C@H](Cc1ccc(O)cc1)NC(=O)[C@H](CC(N)=O)NC(=O)[C@H](CCC(N)=O)NC(=O)[C@H](Cc1c[nH]c2ccccc12)NC(=O)[C@H](CC(=O)O)NC(=O)[C@@H]1CCCN1C(=O)[C@H](Cc1ccccc1)NC(=O)[C@H](Cc1ccc(O)cc1)NC(=O)CNC(=O)[C@H](CCC(N)=O)NC(=O)[C@@H](N)[C@@H](C)O)[C@@H](C)O)C(C)C)[C@@H](C)O)C(C)C)C(N)=O) [NEF 117] | 81% | quantitative | 109.08-116.72% | 4.67% | slightly opalescent solution
TRPNNNTRKSIHIGPGRAFYATGEIIGDIRQAHK(Palmitoyl)-NH2 [ENV] | 95% | quantitative | 104.71-110.89% | 14.95% | –
